Laboratory results: patent publication US5874287

Target: G protein alpha subunit of human erythrocyte membranes (human) (UniProt P63092)

“rCTXA1/T1 (CTXA1 truncated at Trp179) (enzyme)” gave an SPECIFIC ACTIVITY FOR HEM G. PROTEIN (ADP-ribosyltransferase, relative) of under 0.01.
